Data published in patent US20230203177A1 (Bristol-Myers Squibb, published 2023).
Positions count from the first letter of the chain named. Names may count otherwise.

B1: BMS-986325 (antibody, human IgG1, kappa)
heavy: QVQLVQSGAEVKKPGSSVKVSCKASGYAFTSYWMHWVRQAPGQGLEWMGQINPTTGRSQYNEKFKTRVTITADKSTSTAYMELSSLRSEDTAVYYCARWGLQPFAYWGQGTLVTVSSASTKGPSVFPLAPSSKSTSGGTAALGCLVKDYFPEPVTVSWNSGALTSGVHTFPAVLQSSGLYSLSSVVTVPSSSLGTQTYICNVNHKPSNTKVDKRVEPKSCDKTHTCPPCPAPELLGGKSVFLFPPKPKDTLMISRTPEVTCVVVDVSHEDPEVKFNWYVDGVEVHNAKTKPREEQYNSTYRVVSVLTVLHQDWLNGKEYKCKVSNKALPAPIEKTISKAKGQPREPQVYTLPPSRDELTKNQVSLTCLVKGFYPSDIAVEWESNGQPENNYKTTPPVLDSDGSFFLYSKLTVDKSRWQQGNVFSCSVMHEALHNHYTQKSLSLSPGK
light: DIQMTQSPSFLSASVGDRVTITCKASQDVSTAVAWYQQKPGKAPKLLIYSASYRYTGVPSRFSGSGSGTDFTLTISSLQPEDFATYYCQQHYSTPWTFGGGTKVEIKRTVAAPSVFIFPPSDEQLKSGTASVVCLLNNFYPREAKVQWKVDNALQSGNSQESVTEQDSKDSTYSLSSTLTLSKADYEKHKVYACEVTHQGLSSPVTKSFNRGEC
notes: IgG1-P238K; purified lots and supernatant M1 treated as one molecule; also called M1 (wt); Y12XX-hz28
B2: M81 (HC-wt / LC-K107Q,R108Q) (antibody, human IgG1, kappa)
heavy: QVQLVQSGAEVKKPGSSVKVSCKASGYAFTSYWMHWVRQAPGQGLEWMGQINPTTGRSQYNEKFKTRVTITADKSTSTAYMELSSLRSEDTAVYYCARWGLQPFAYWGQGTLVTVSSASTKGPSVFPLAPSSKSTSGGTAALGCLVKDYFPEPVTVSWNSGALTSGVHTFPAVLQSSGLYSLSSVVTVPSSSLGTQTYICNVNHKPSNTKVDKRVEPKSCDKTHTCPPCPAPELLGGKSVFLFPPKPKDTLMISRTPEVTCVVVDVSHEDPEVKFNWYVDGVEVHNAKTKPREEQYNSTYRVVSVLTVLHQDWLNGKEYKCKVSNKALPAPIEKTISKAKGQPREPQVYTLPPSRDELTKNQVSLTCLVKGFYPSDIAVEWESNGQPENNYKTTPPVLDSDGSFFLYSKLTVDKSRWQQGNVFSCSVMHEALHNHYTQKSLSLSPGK
light: B1 light with K107Q, R108Q
notes: IgG1-P238K; also called HC1/LC6
B3: M80 (HC-K63Q / LC-R61Q) (antibody, human IgG1, kappa, V domains shown)
VH: QVQLVQSGAEVKKPGSSVKVSCKASGYAFTSYWMHWVRQAPGQGLEWMGQINPTTGRSQYNEQFKTRVTITADKSTSTAYMELSSLRSEDTAVYYCARWGLQPFAYWGQGTLVTVSS
VL: DIQMTQSPSFLSASVGDRVTITCKASQDVSTAVAWYQQKPGKAPKLLIYSASYRYTGVPSQFSGSGSGTDFTLTISSLQPEDFATYYCQQHYSTPWTFGGGTKVEIKR
notes: IgG1-P238K; also called HC16/LC5
B4: M63 (HC-R67Q / LC-K45Q,R54Q,R61Q) (antibody, human IgG1, kappa, V domains shown)
VH: B3 VH with Q63K, R67Q
VL: B3 VL with K45Q, R54Q
notes: IgG1-P238K; also called HC15/LC4

Key:
[1] = molecular target: human CD40 on primary human tonsillar B cells (human, UniProt P25942 21-277); test: cell-based or functional assay
[2] = molecular target: T1, soluble human CD40 extracellular domain (human, UniProt P25942 21-193); test: SPR, purified Ab on protein A, 6 concentrations of hCD40 ECD, mean of 3
T1 construct: Produced in house; also called hCD40; soluble hCD40 extracellular domain
Protocol: (§1) Additionally, to more accurately define the dissociation rate (kd), a longer dissociation time of 360 seconds (s) was used as opposed to the shorter 180 s dissociation that had been used in the supernatant screening experiment.
(§2) CD40 binding SPR: SPR studies of the purified antibodies were conducted on BIAcore™ T200 instrument (GE Healthcare, Chicago Ill.). A Series S Protein A sensor chip (GE Healthcare, Chicago Ill.) was equilibrated with SPR running buffer of 10 mM NaPO₄, 130 mM NaCl, 0.05% tween 20, (PBS-T) pH 7.2 at 25° C. The purified antibody samples were diluted to 3 μg/ml in PBS-T and captured on the protein A surface for 30 s at 10 μl/min Binding of 3.91, 7.81, 15.6, 31.3, 62.5, and 125 nM human CD40 extracellular domain (produced in house) was evaluated using association time of 180 s at 30 μl/min, followed by a dissociation time of 360 s at 30 μl/min Regeneration between cycles was accomplished using two 15 s injections of 10 mM glycine pH 1.5. […] Data were analyzed using BIAcore™ T200 evaluation software by fitting to a 1:1 Langmuir model.

[3] = molecular target: T1, soluble human CD40 extracellular domain; test: SPR, purified Ab on protein A chip, soluble hCD40 ECD analyte, Fc2-1, n=3 global fit
Protocol: as §2, with “A” for “CD40 binding SPR: SPR studies of the purified antibodies were conducted on BIAcore™ T200 instrument (GE Healthcare, Chicago Ill.). A”, “[…] After priming the system, the 3 μg/ml” for “The purified”, “were” for “were diluted to 3 μg/ml in PBS-T and”, “50 nM” for “3.91, 7.81, 15.6, 31.3, 62.5,”, “500” for “125”, “180” for “360”

[4] = molecular target: T1, soluble human CD40 extracellular domain; test: SPR, purified Ab on protein A chip, soluble hCD40 ECD analyte, Fc3-1, n=3 global fit
[5] = molecular target: T1, soluble human CD40 extracellular domain; test: SPR, purified Ab on protein A chip, soluble hCD40 ECD analyte, Fc4-1, n=3 global fit
Protocol: as §2, with “A” for “CD40 binding SPR: SPR studies of the purified antibodies were conducted on BIAcore™ T200 instrument (GE Healthcare, Chicago Ill.). A”, “[…] After priming the system, the 3 μg/ml” for “The purified”, “were” for “were diluted to 3 μg/ml in PBS-T and”, “50 nM” for “3.91, 7.81, 15.6, 31.3, 62.5,”, “500” for “125”, “180” for “360”

[6] = molecular target: T1, soluble human CD40 extracellular domain; test: SPR, Ab captured from supernatant on protein A, hCD40 ECD analyte; antibody captured out of supernatant
Protocol: The titer data (Table 21) were used to normalize the antibody concentration in each supernatant to 3 μg/ml, and these antibodies were captured out of the supernatants on a protein A CMS Series S sensor chip (GE Healthcare), and tested for binding to two concentrations (5 nM and 50 nM) of soluble hCD40 extracellular domain.
CD40 binding SPR of antibody supernatants: Surface plasmon resonance (SPR) studies were conducted on a BIAcore™ T200 instrument (GE Healthcare, Chicago Ill.). A Series S Protein A sensor chip (GE Healthcare, Chicago Ill.) was equilibrated with SPR running buffer of 10 mM NaPO₄, 130 mM NaCl, 0.05% tween 20, (PBS-T) pH 7.2 at 25° C. The 96 antibody supernatants were normalized to a concentration of 3 μg/ml by diluting with PBS-T using a PerkinElmer JANUS® G3 system (PerkinElmer, Akron, Ohio). After priming the system, the 3 μg/ml antibody samples were captured on the protein A surface for 30 s at 10 μl/min Binding of 50 nM and 500 nM human CD40 extracellular domain (produced in house) was evaluated using association time of 180 s at 30 μl/min, followed by a dissociation time of 180 s at 30 μl/min Regeneration between cycles was accomplished using two 15 s injections of 10 mM glycine pH 1.5. […] Data were analyzed using BIAcore™ T200 evaluation software by fitting to a 1:1 Langmuir model.

[7] = molecular target: T1, soluble human CD40 extracellular domain; test: SPR, purified Ab on protein A, 6 concentrations of hCD40 ECD, mean of 3; purified antibody, mean of three measurements
Protocol: as §1, §2

[8] = molecular target: T1, soluble human CD40 extracellular domain; test: SPR, purified Ab on protein A, 6 concentrations of hCD40 ECD
Protocol: as §1, §2

[9] = molecular target: T1, soluble human CD40 extracellular domain; test: SPR, Ab captured from supernatant on protein A, hCD40 ECD analyte
Method in brief: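 Biacore T200, 25 °C, PBS-T pH 7.2; antibodies (3 μg/ml, supernatants titre-normalised) captured on protein A chip 30 s. Human CD40 ECD analyte (5 and 50 nM, or 50 and 500 nM), 180 s association and 180 s dissociation at 30 μl/min; 1:1 Langmuir fit.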

[10] = molecular target: T1, soluble human CD40 extracellular domain; test: SPR, antibody captured from supernatant on protein A chip, soluble hCD40 ECD at 5 and 50 nM (summary table of the 16 chosen antibodies)

Sequence of human CD40 on primary human tonsillar B cells (P25942 21-277 limits assumed): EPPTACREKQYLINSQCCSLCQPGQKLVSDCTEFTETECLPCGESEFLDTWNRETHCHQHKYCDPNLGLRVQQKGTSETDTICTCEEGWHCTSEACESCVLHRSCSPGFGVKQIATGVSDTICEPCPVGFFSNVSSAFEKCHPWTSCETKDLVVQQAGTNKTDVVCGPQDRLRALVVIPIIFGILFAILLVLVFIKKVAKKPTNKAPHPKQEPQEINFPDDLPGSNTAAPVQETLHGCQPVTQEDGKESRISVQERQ
T1 sequence (P25942 21-193 limits assumed): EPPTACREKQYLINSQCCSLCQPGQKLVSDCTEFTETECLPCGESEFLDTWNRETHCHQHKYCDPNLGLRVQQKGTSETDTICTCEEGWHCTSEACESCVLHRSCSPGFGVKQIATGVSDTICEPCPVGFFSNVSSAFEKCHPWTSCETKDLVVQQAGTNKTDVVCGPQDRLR

Binder | IC50, inhibition of tonsillar human B cell proliferation stimulated by IZ-hCD40L trimer [1] | IC50, inhibition of tonsillar human B cell proliferation stimulated by hCD40L expressing CHO cells [1] | Kd [8] | koff [8] | kon [8] | Kd [9] | Kd [10] | further results
B1 | – | – | – | – | – | – | – | IC50, inhibition of tonsillar human B cell proliferation stimulated by IZ-hCD40L trimer (BMS-986325-WT P1-071223-1 lot 1) [1]: 1.2 ng/mL; IC50, inhibition of tonsillar human B cell proliferation stimulated by IZ-hCD40L trimer (BMS-986325-WT P1-071223-3 lot 3) [1]: 5.6 ng/mL; IC50, inhibition of tonsillar human B cell proliferation stimulated by IZ-hCD40L trimer (BMS-986325 P1-073346-1) [1]: 1.4 ng/mL; IC50, inhibition of tonsillar human B cell proliferation stimulated by hCD40L expressing CHO cells (BMS-986325-WT P1-071223-1 lot 1) [1]: 42 ng/mL; IC50, inhibition of tonsillar human B cell proliferation stimulated by hCD40L expressing CHO cells (BMS-986325-WT P1-071223-3 lot 3) [1]: 31.4 ng/mL; IC50, inhibition of tonsillar human B cell proliferation stimulated by hCD40L expressing CHO cells (BMS-986325 P1-073346-1) [1]: 47 ng/mL; Kd [2]: 3.1 nM; koff [2]: 0.00066 s⁻¹; Kd [3]: 4.4 nM; koff [3]: 0.00087 s⁻¹; kon [3]: 200000 M⁻¹ s⁻¹; Kd [4]: 4.5 nM; koff [4]: 0.00091 s⁻¹; kon [4]: 200000 M⁻¹ s⁻¹; Kd [5]: 4.4 nM; koff [5]: 0.00091 s⁻¹; kon [5]: 210000 M⁻¹ s⁻¹; Kd [6]: 4.2 nM; kon [7]: 220000 M⁻¹ s⁻¹
B2 | 0.7 ng/mL | 25.7 ng/mL | 3 nM | 0.0007 s⁻¹ | 240000 M⁻¹ s⁻¹ | 4.1 nM | 4.1 nM | –
B3 | 16.4 ng/mL | 369 ng/mL | 2.9 nM | 0.0007 s⁻¹ | 240000 M⁻¹ s⁻¹ | 4.1 nM | 4.1 nM | –
B4 | 5.7 ng/mL | 208 ng/mL | 1.8 nM | 0.00073 s⁻¹ | 400000 M⁻¹ s⁻¹ | 2.4 nM | 2.4 nM | –
